We go through eight molecules from patent US6942988 (Johns Hopkins, dated 2005).

Sequences and labels used below:
T1: full-length mouse Ptc (patched receptor) (mouse, UniProt Q61115 1-1434)
T1 construct: whole, on cells; Predicted mass 159 kDa
T1 sequence (looked up): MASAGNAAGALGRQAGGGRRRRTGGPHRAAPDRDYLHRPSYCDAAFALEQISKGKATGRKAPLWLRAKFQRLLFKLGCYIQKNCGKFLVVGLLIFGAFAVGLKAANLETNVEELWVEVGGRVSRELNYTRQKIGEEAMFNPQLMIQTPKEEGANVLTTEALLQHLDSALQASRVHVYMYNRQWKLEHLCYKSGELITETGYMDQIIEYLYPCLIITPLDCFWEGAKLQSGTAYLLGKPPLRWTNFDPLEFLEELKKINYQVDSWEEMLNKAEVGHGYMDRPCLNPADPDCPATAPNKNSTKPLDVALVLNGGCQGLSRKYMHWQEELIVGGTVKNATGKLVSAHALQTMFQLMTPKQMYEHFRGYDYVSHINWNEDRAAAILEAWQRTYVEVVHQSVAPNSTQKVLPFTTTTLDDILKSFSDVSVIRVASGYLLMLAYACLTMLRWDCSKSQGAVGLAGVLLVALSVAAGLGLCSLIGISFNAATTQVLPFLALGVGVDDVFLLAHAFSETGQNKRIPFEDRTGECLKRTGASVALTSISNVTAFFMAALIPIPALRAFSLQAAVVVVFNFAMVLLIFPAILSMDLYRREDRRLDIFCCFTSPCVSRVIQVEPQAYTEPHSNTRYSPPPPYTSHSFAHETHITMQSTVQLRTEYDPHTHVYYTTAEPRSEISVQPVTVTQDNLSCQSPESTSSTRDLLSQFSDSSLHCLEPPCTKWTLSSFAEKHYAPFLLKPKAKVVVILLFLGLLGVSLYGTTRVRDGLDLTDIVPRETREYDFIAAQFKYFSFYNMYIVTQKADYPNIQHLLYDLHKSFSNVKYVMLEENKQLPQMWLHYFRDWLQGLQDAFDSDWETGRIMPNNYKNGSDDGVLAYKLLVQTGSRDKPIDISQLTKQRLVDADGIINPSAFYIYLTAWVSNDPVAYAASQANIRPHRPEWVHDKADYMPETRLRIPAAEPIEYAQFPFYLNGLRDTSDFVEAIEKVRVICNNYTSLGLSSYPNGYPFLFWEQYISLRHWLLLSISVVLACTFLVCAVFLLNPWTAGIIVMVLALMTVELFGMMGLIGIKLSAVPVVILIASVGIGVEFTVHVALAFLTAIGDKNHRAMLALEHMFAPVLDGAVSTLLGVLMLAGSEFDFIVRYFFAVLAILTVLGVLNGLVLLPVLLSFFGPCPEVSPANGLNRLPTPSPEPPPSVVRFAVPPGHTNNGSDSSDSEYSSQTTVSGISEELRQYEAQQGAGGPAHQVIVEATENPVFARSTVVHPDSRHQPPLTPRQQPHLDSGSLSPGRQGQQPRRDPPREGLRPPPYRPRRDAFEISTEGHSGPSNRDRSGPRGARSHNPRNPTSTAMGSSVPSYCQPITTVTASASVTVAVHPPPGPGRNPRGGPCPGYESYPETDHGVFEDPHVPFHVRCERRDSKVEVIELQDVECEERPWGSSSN

B1: Shh-N SC mutant protein (P42A, K46A, R154A, S157A, S178A, K179A) (ligand)
chain: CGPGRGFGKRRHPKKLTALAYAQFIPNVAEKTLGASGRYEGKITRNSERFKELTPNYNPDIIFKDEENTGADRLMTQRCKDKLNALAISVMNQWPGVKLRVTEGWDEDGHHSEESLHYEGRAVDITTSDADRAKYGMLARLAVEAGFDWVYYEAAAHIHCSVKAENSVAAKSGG
notes: Limits of the entry not visible; also called SC altered protein
B2: Shh-N H135A, E177A double mutant (EH) protein (ligand)
chain: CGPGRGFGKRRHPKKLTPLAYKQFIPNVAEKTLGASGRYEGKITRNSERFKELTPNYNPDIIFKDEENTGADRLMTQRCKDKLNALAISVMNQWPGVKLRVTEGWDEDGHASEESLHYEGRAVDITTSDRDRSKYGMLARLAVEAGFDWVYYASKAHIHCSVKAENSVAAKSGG
B3: Shh-N SB altered protein (N51A, V52A, T56A, E168A) (ligand)
chain: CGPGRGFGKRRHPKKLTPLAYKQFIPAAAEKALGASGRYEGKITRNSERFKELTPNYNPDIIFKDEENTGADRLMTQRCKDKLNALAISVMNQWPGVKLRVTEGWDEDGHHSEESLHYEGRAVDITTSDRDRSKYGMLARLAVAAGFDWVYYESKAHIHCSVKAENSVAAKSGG
B4: Shh-N SF protein (R154A, S157A) (ligand)
chain: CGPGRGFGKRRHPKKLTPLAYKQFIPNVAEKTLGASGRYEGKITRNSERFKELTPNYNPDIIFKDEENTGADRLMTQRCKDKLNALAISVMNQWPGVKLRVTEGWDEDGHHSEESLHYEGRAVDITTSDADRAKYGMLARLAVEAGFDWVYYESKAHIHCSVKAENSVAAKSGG
B5: Shh-N SG protein (S178A, K179A) (ligand)
chain: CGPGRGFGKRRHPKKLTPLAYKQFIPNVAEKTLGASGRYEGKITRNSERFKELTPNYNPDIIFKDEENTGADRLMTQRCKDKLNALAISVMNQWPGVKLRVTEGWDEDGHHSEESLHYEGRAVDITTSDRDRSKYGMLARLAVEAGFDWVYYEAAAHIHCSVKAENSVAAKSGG
B6: Shh-N SD altered protein (E90A, D132A, E138A) (ligand)
chain: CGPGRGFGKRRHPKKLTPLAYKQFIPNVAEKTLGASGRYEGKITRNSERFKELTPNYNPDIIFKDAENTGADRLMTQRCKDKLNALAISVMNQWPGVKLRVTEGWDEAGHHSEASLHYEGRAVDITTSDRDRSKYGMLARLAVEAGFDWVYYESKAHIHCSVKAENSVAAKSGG
B7: Shh-N SA altered protein (K75A, E76A, Y81A, D105A, N116A, E189A, K195A) (ligand)
chain: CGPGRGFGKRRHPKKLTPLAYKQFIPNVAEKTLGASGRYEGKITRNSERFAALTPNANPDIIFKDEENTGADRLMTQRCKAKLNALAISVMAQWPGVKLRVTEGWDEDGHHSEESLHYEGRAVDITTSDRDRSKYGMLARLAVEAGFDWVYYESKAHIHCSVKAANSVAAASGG
B8: Shh-N SE protein (P42A, K46A) (ligand)
chain: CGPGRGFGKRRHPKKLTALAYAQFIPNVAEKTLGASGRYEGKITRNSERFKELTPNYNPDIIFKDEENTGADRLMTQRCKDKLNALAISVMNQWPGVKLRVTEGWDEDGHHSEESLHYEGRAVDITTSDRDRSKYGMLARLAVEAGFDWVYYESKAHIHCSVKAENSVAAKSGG

T2 sequence (Q90693 whole entry): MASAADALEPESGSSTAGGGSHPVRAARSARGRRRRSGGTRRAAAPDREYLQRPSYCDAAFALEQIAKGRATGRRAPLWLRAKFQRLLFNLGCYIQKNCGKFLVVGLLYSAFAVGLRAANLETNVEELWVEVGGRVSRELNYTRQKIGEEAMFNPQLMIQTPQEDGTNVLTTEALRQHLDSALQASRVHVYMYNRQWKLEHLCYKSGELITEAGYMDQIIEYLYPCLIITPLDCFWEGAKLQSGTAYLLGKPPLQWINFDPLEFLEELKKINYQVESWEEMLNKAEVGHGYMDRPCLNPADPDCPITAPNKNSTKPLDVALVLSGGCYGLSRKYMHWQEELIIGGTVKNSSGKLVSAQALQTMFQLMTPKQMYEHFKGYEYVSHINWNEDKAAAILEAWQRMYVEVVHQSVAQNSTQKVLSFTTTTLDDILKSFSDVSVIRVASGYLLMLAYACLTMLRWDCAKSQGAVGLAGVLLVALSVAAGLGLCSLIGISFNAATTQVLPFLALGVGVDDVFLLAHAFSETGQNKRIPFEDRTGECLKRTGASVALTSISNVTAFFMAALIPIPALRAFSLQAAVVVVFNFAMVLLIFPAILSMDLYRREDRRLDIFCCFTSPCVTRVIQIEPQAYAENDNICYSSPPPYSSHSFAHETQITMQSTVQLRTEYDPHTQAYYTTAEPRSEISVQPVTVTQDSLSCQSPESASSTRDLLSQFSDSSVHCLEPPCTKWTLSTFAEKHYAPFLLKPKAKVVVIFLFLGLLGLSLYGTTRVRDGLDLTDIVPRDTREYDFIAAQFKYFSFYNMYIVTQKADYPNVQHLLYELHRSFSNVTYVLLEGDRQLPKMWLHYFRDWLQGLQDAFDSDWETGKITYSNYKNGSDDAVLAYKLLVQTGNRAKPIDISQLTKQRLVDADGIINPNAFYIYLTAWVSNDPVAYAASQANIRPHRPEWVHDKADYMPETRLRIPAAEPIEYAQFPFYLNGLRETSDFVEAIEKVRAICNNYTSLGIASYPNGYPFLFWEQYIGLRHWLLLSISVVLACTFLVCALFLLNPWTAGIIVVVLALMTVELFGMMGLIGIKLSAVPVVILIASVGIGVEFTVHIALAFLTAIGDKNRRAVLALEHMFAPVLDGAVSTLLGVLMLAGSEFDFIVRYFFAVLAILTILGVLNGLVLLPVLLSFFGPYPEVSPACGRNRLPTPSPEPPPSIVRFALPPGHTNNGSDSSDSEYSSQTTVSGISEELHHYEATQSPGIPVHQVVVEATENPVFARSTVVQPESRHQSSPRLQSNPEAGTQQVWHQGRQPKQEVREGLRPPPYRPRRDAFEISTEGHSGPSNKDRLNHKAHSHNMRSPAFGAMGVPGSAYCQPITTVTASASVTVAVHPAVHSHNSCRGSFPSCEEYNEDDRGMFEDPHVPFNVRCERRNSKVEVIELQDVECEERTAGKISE

The first assay deals with T1, full-length mouse Ptc (patched receptor). As to the kind of experiment: competition of the disuccinimidyl suberate crosslinking of 32P-Shh-N to Ptc-expressing EcR-293 cells.
As to B1, the binding result was “no binding”.

Another assay has as its target T2, Ptc (patched receptor) of the cells of chicken intermediate neural plate explants. In words: cell-based or functional assay.
Regarding B2, the “HNF-3β induction, nM (minimum concentration for uniform induction, chicken neural plate explants)” value (shortened to “HNF-3β induction, nM”) is no less than 20 nM and the “Pax-7 repression, nM (minimum concentration for complete repression, chicken neural plate explants)” value (from here on “Pax-7 repression, nM”) was roughly 10 nM.

On to B1, for which the “HNF-3β induction, nM” value is greater than 1000 nM and the “Pax-7 repression, nM” value was greater than 1000 nM.

As for B3, the “HNF-3β induction, nM” value was no less than 20 nM and the “Pax-7 repression, nM” value is roughly 4 nM.

As to B4, the “HNF-3β induction, nM” value was no less than 100 nM and the “Pax-7 repression, nM” value was roughly 70 nM.

Consider B5, for which the “HNF-3β induction, nM” value was roughly 100 nM and the “Pax-7 repression, nM” value was roughly 30 nM.

B6: the “HNF-3β induction, nM” value was no less than 20 nM and the “Pax-7 repression, nM” value is roughly 10 nM.

With B7, the “HNF-3β induction, nM” value is no more than 20 nM and the “Pax-7 repression, nM” value was roughly 4 nM.

B8: the “HNF-3β induction, nM” value is roughly 100 nM and the “Pax-7 repression, nM” value was roughly 20 nM.

For another assay, the target named is T2, Ptc (patched receptor) of the cells of …. As to the kind of experiment: cell-based or functional assay. The source holds these as a separate data set.
As for B6, the “reduction in neural plate signaling activity against wild type” value is roughly 2.5 fold.
